T1: human CCR3 (human, UniProt P51677 1-355)
T1 construct: whole, on cells; transiently expressed on HEK293 cells
T1 sequence (looked up): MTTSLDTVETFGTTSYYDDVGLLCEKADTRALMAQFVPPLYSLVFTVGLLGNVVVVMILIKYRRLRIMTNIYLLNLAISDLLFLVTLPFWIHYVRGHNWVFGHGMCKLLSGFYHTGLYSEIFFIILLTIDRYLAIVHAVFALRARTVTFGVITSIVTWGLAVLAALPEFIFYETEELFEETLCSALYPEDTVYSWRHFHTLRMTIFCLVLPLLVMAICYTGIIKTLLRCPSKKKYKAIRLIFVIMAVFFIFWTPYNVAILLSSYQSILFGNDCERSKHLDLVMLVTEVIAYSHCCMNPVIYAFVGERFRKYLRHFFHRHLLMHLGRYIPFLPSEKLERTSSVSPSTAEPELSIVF

T2: human CCR4 (human, UniProt P51679 1-360)
T2 construct: whole, on cells; transiently expressed on HEK293 cells
T2 sequence (looked up): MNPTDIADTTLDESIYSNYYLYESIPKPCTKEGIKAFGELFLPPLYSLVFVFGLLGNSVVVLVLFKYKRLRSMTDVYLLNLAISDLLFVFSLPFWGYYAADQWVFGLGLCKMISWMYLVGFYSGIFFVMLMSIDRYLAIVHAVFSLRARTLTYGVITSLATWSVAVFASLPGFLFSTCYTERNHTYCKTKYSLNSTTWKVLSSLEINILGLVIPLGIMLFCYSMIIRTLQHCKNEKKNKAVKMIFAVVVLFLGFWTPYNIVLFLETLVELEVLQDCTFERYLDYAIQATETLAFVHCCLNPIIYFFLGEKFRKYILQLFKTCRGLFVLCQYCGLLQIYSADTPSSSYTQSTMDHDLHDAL


Assays:
[1] = biological target: T1, human CCR3; assay: flow cytometry, HEK293 with N-term FLAG-tagged human CCR3
Text: (§1) FIGS. 4A-4F depicts the binding data of hu.Ab3.H1L1 (FIG. 4A), hu.Ab4.H1L1 (FIG. 4B), and hu.Ab5.H1L1 (FIG. 4C), as well as the commercial anti-CCR8 mAbs murine anti-human CCR8 mAb 433H (BD Biosciences) (FIG. 4D), and murine anti-human CCR8 mAb L263G8 (Biolegend) (FIG. 4E), and the humanized anti-human Yoshida anti-CCR8 mAb (FIG. 4F), to HEK293 cells that were transiently transfected with N-term FLAG-tagged plasmids encoding for human GPCRs (CCR2, CCR3, CCR4, CCR5, CCR8, CXCR4, ACKR2, and ACKR4), hCCR8 constructs, or with a mock construct using transIT X2 (reagent:DNA=3:1).
(§2) To confirm the selectivity to CCR8, the binding of hu.Ab3.H1L1, hu.Ab4.H1L1, and hu.Ab5.H1L1, as well as the Yoshida humanized anti-human CCR8, murine anti-human CCR8 mAb L263G8 (Biolegend, Commercial Ab) and murine anti-human CCR8 mAb 433H (BD Biosciences, Commercial Ab), were characterized by flow cytometry on HEK293 cells that were transiently transfected with plasmids encoding for FLAG-tagged other related human GPCRs (CCR2-5, CXCR4, ACKR2, and ACKR4). Cell surface expression of each GPCR was confirmed by staining with an anti-FLAG antibody control. […]

[2] = biological target: T2, human CCR4; assay: flow cytometry, HEK293 with N-term FLAG-tagged human CCR4
Text: as §1, §2

[3] = biological target: T3, human CCR8 (human, UniProt P51685 1-355); assay: cell-based or functional assay
[4] = biological target: T2, human CCR4; assay: flow cytometry, HEK293 with N-term FLAG-tagged human CCR4, procedure of FIG. 4
Text: (§3) To confirm the selectivity to CCR8, the binding of hu.Ab3.H1L1, hu.Ab4.H1L1, and hu.Ab5.H1L1, as well as the Yoshida humanized anti-human CCR8, murine anti-human CCR8 mAb L263G8 (Biolegend, Commercial Ab) and murine anti-human CCR8 mAb 433H (BD Biosciences, Commercial Ab), were characterized by flow cytometry on HEK293 cells that were transiently transfected with plasmids encoding for FLAG-tagged other related human GPCRs (CCR2-5, CXCR4, ACKR2, and ACKR4). Cell surface expression of each GPCR was confirmed by staining with an anti-FLAG antibody control. In particular, HEK293 cells were transfected with N-term FLAG-tagged human CCR2, CCR3, CCR4, CCR5, CXCR4, ACKR2, ACKR4, hCCR8 constructs, or with a Mock construct using transIT X2 (reagent:DNA=3:1) for 24 hours, and surface stained with various anti-hCCR8 monoclonal antibodies at 5 ug/ml, or rabbit anti-Flag pAb (Sigma) followed by AF647-anti-hIgG or AF647-anti-RbIgG respectively. Antibodies hu.Ab4.H1L1, and hu.Ab5.H1L1, only stained the hCCR8-containing cells, confirming their specificity to hCCR8. […] Thus, the CCR8 selective hu.Ab4.H1L1 and hu.Ab5.H1L1 antibodies with the best ADCC activities were carried forward.
(§4) To reconfirm that the Ab4 and Ab5 variants remained selective to CCR8 compared to the corresponding HIL1 variants, binding was analyzed by flow cytometry following the procedure as described for FIG. 4A and FIG. 4B. […]

[5] = biological target: T4, human CCR5 (human, UniProt P51681 1-352); assay: flow cytometry, HEK293 with N-term FLAG-tagged human CCR5, procedure of FIG. 4
T4 construct: whole, on cells; transiently expressed on HEK293 cells
Text: as §3, §4

[6] = biological target: T5, cyno CCR8 (cynomolgus monkey, UniProt O97665 1-356 (rhesus entry)); assay: radioligand competition, 125I-labelled IgG versus unlabelled IgG on CHO cells stably expressing cyno CCR8
T5 construct: also called cynomolgus monkey CCR8
Method: (§5) Cell-based affinity measurements were performed using radiolabeled IgGs and CHO cell lines stably expressing human or cyno CCR8 for hu.Ab5.H13L1 and hu.Ab4.H12L3.
(§6) Briefly, stable CHO cells expressing human or cyno CCR8 were seeded in cold binding buffer (Opti-MEM+2% FBS+50 mM HEPES, pH 7.2+0.1% Sodium Azide) at 50,000 cells per well. A fixed concentration of ¹²⁵I-anti-CCR8 radiolabeled using the NEX244 Iodogen method (Perkin Elmer) was mixed with serially diluted anti-CCR8 antibodies starting at 20 nM or 50 nM. The antibody mixture was added to the cells and incubated at room temperature for 12 hours under gentle agitation. The cells and antibodies were then transferred to Millipore multiscreen filter plates. The filter plates were washed 4 times with 250 μL of cold binding buffer and dried for at least 30 minutes and the filters were punched into 5 mL polystyrene tubes. The radioactivity was measured using a Perkin Elmer Wallac Wizard 2470 Gamma Counter set at 1 count per minute with 0.8 counting efficiency. The data were fitted using the heterologous one site-fit Ki competitive binding model in GraphPad Prism.

[7] = biological target: T5, cyno CCR8; assay: radioligand competition on CHO cells stably expressing cyno CCR8: fixed 125I-anti-CCR8 against serially diluted unlabelled antibody
Method: as §5, §6

[8] = biological target: T3, human CCR8; assay: radioligand competition on CHO cells stably expressing human CCR8: fixed 125I-anti-CCR8 against serially diluted unlabelled antibody
Method: as §5, §6

T5 sequence (O97665 other isoform, or with tags, fused parts or gaps): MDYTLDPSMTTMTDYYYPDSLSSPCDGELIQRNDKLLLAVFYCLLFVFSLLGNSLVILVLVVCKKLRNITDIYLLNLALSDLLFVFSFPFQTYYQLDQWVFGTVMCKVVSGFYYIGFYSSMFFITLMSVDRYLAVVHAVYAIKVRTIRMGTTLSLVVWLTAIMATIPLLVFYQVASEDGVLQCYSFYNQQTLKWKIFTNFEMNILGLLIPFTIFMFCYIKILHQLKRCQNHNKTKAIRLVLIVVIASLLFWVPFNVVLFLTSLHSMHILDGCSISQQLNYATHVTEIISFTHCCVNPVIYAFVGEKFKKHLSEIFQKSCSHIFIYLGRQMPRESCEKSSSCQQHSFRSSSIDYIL
T4 sequence (P51681 whole entry): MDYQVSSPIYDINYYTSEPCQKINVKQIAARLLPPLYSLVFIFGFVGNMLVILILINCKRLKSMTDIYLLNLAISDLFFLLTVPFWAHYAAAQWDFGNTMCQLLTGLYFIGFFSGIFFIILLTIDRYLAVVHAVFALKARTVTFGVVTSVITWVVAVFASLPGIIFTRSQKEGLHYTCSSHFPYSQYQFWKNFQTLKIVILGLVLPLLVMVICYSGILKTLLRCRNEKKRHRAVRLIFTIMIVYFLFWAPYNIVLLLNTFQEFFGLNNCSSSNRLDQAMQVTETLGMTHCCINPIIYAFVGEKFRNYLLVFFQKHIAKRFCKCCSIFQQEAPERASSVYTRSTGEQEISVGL

Row | binding result [1] | binding result [2] | ADCC EC50, NK-92 F158 cells (FIG. 11A) [3] [nM] | ADCC EC50, NK-92 V158 cells (FIG. 11B) [3] [nM] | binding result [4] | binding result [5] | Kd [6] [nM] | IC50 (read off the curve) [7] [nM] | IC50 (read off the curve) [8] [nM] | Binder
1 | no binding (tested: 5 ug/ml) | no binding (tested: 5 ug/ml) |  |  |  |  |  |  |  | hu.Ab5.H1L1 (antibody, human IgG1, kappa) heavy: not shown light: DIQVTQSPSSLSASVGDRVTITCQASENIANALAWYQQKPGKPPKFLIYGASNLASGVPSRFSGSGSGTDFTFTISSLQPEDIATYYCQQAYYGNSFVEGTFGGGTKVEIKRTVAAPSVFIFPPSDEQLKSGTASVVCLLNNFYPREAKVQWKVDNALQSGNSQESVTEQDSKDSTYSLSSTLTLSKADYEKHKVYACEVTHQGLSSPVTKSFNRGEC
2 |  |  | 0.14 | 0.094 | no binding (tested: 5 ug/ml) | no binding (tested: 5 ug/ml) | 0.0034 | ~0.05 | ~0.05 | hu.Ab5.H13L1 (antibody, human IgG1, kappa, fucosylated human IgG1; also called Ab5 variant) heavy: not shown light: DIQVTQSPSSLSASVGDRVTITCQASENIANALAWYQQKPGKPPKFLIYGASNLASGVPSRFSGSGSGTDFTFTISSLQPEDIATYYCQQAYYGNSFVEGTFGGGTKVEIKRTVAAPSVFIFPPSDEQLKSGTASVVCLLNNFYPREAKVQWKVDNALQSGNSQESVTEQDSKDSTYSLSSTLTLSKADYEKHKVYACEVTHQGLSSPVTKSFNRGEC
3 | no binding (tested: 5 ug/ml) | no binding (tested: 5 ug/ml) |  |  |  |  |  |  |  | hu.Ab4.H1L1 (antibody, human IgG1, kappa, also called hu.Ab4.H1Ll) heavy: not shown light: DYQMTQSPSSLSASVGDRVTITCQASQSISSYLSWYQQKPGKRPKLLIYKASTLASGVPSRFSGSGSGTDFTLTISSLQPEDFATYYCQQGYTSSNIDNIFGGGTKVEIKRTVAAPSVFIFPPSDEQLKSGTASVVCLLNNFYPREAKVQWKVDNALQSGNSQESVTEQDSKDSTYSLSSTLTLSKADYEKHKVYACEVTHQGLSSPVTKSFNRGEC
4 |  |  | 0.27 | 0.21 | no binding (tested: 5 ug/ml) | no binding (tested: 5 ug/ml) | 0.0243 | ~0.1 | ~0.1 | hu.Ab4.H12L3 (antibody, human IgG1, kappa, fucosylated human IgG1; also called huCCR8-Ab4.H12L3.hIgG1; Ab4 variant) heavy: not shown light: DYQMTQSPSSLSASVGDRVTITCQASQSISSYLSWYQQKPGKAPKLLIYKASTLASGVPSRFSGSGSGTDFTLTISSLQPEDFATYYCQQGYTSSNIDNIFGGGTKVEIKRTVAAPSVFIFPPSDEQLKSGTASVVCLLNNFYPREAKVQWKVDNALQSGNSQESVTEQDSKDSTYSLSSTLTLSKADYEKHKVYACEVTHQGLSSPVTKSFNRGEC

From patent US20230049152A1 (Genentech, published 2023)
